Results: the supplement of paper PMC10567573

B1: SNAP91 (parent)
chain: FATASAAVPVSTSKPSSDLLDLQP
B2: PLD5 (parent)
chain: KRTYWPDLDAKIREALVLRSVRVR

Variants of: B1
Assay: protein stability index of a GFP-peptide fusion (GPS, HEK-293T) (PSI 1-6); higher = more stable
Settings: c terminus: a fixed tail appended
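Note: lentivirally expressed fusions sorted by FACS into six bins by GFP to DsRed ratio, PSI derived from sequencing read proportions per bin multiplied by bin number.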

Variant	protein stability index
DATASAAVPVSTSKPSSDLLDLQP [F1D]	5.71
IATASAAVPVSTSKPSSDLLDLQP [F1I]	4.5
MATASAAVPVSTSKPSSDLLDLQP [F1M]	4.67
EATASAAVPVSTSKPSSDLLDLQP [F1E]	5.69
AATASAAVPVSTSKPSSDLLDLQP [F1A]	4.84
CATASAAVPVSTSKPSSDLLDLQP [F1C]	4.64
LATASAAVPVSTSKPSSDLLDLQP [F1L]	4.62
NATASAAVPVSTSKPSSDLLDLQP [F1N]	4.53
HATASAAVPVSTSKPSSDLLDLQP [F1H]	5.52
PATASAAVPVSTSKPSSDLLDLQP [F1P]	4.84
GATASAAVPVSTSKPSSDLLDLQP [F1G]	4.89
KATASAAVPVSTSKPSSDLLDLQP [F1K]	4.92

Variants of: B2
Assay: as above
Settings: c terminus: a fixed tail appended

Variant	protein stability index
KRTYWPDLDAKIREALVLRSFRVR [V21F]	3.54
KRTYWPDLDAKIREALVLRSNRVR [V21N]	2.48
KRTYWPDLDAKIREALVLRSERVR [V21E]	2.24
KRTYWPDLDAKIREALVLRSMRVR [V21M]	2.51
KRTYWPDLDAKIREALVLRSARVR [V21A]	1.84
KRTYWPDLDAKIREALVLNSVRVR [R19N]	2.8
KRTYWPDLDAKIREALVLQSVRVR [R19Q]	2.53
KRTYWPDLHAKIREALVLRSVRVR [D9H]	2.57
KQTYWPDLDAKIREALVLRSVRVR [R2Q]	2.31
KMTYWPDLDAKIREALVLRSVRVR [R2M]	1.77
KYTYWPDLDAKIREALVLRSVRVR [R2Y]	1.09
KPTYWPDLDAKIREALVLRSVRVR [R2P]	2.7
KRTYWPDLDAKIREAGVLRSVRVR [L16G]	1.31
KRTYWPDLDAKIREAWVLRSVRVR [L16W]	3.86
KRQYWPDLDAKIREALVLRSVRVR [T3Q]	2.91
KRSYWPDLDAKIREALVLRSVRVR [T3S]	1.6
KRLYWPDLDAKIREALVLRSVRVR [T3L]	2.83
KRTYWPDLDAKIKEALVLRSVRVR [R13K]	1.9
KRTYWPDLDAKIGEALVLRSVRVR [R13G]	1.89
KRTYWPDLDAKISEALVLRSVRVR [R13S]	1.43
KRTYWPDLDAKIMEALVLRSVRVR [R13M]	1.54

Variant	protein stability index
KRTYWPYLDAKIREALVLRSVRVR [D7Y]	1.37
KRTYWPVLDAKIREALVLRSVRVR [D7V]	1.23
KRTYWPCLDAKIREALVLRSVRVR [D7C]	1.61
KRTYWPFLDAKIREALVLRSVRVR [D7F]	1.58
KRTYWWDLDAKIREALVLRSVRVR [P6W]	3.99
KRTYWDDLDAKIREALVLRSVRVR [P6D]	1.28
KRTYWPDLDAKIREALVLRSVRWR [V23W]	1.78
KRTYWPDLDAKIREALVLRSVRDR [V23D]	2.35
KRTYWPDLDAKIREALVLRSVRTR [V23T]	1.88
KRTYWPDLDAKIREALVLRSVRPR [V23P]	3.22
KRTYWPDLDAKIREALVLRSVRHR [V23H]	2.1
KRTYWPDLDAKIREALVLRSVRYR [V23Y]	1.74
KRTYWPDLDAKIREALVLRSVRNR [V23N]	2.54
KRTYWPDLDAKIREALVLRSVSVR [R22S]	2.14
KRTYWPDLDAKIREALVLRSVVVR [R22V]	2.14
KRTYWPDLDAKIREALVLRSVTVR [R22T]	1.59
KRTYWPDLDAKRREALVLRSVRVR [I12R]	2.78
KRTYWPDLDAKVREALVLRSVRVR [I12V]	2.3
KRTYWPDLDAKKREALVLRSVRVR [I12K]	2.41
KRTYWPDLDAKQREALVLRSVRVR [I12Q]	2.54
KRTYWPDLDAKEREALVLRSVRVR [I12E]	2.76

Variant	protein stability index
KRTYWPDLDAKIREALVLRSVRVD [R24D]	2.27
KRTYWPDLDAKIREALVLRSVRVT [R24T]	1.52
KRTYWPDLDAKIREALVLRSVRVC [R24C]	2.52
KRTYWPDLDAKIREALVLRSVRVH [R24H]	1.74
KRTYWPDLDAKIREALVLRSVRVE [R24E]	1.94
KRTYWPDLDAKIREALVLRSVRVQ [R24Q]	3.34
KRTYWPDLDAKIREALVERSVRVR [L18E]	2.93
KRTYWPDLDAKIREALVWRSVRVR [L18W]	2.04
KRTYWPDLDAKIREALVFRSVRVR [L18F]	1.78
KRTYWPDLDAKIREALRLRSVRVR [V17R]	1.32
KRTYWPDLDAKIREALGLRSVRVR [V17G]	2.11
KRTYWPDLDAKIREALLLRSVRVR [V17L]	1.91
YRTYWPDLDAKIREALVLRSVRVR [K1Y]	1.05
DRTYWPDLDAKIREALVLRSVRVR [K1D]	2.06
RRTYWPDLDAKIREALVLRSVRVR [K1R]	1.92
CRTYWPDLDAKIREALVLRSVRVR [K1C]	1.46
LRTYWPDLDAKIREALVLRSVRVR [K1L]	1.6
PRTYWPDLDAKIREALVLRSVRVR [K1P]	1.79
NRTYWPDLDAKIREALVLRSVRVR [K1N]	2.21
TRTYWPDLDAKIREALVLRSVRVR [K1T]	1.93
KRTYWPDLDAKIREALVLRQVRVR [S20Q]	2.04

Variant	protein stability index
KRTYWPDLDAKIREALVLRKVRVR [S20K]	1.48
KRTYWPDDDAKIREALVLRSVRVR [L8D]	2.83
KRTYWPDNDAKIREALVLRSVRVR [L8N]	1.73
KRTYWPDQDAKIREALVLRSVRVR [L8Q]	1.88
KRTYWPDFDAKIREALVLRSVRVR [L8F]	2
KRTYWPDLDAKIRPALVLRSVRVR [E14P]	2.13
KRTYWPDLDAKIRCALVLRSVRVR [E14C]	1.46
KRTVWPDLDAKIREALVLRSVRVR [Y4V]	3.54
KRTAWPDLDAKIREALVLRSVRVR [Y4A]	1.17
KRTDWPDLDAKIREALVLRSVRVR [Y4D]	2.75
KRTQWPDLDAKIREALVLRSVRVR [Y4Q]	1.93
KRTYEPDLDAKIREALVLRSVRVR [W5E]	2.79
KRTYSPDLDAKIREALVLRSVRVR [W5S]	2.66
KRTYTPDLDAKIREALVLRSVRVR [W5T]	1.58
KRTYWPDLDAPIREALVLRSVRVR [K11P]	2.14
KRTYWPDLDADIREALVLRSVRVR [K11D]	2.29
KRTYWPDLDIKIREALVLRSVRVR [A10I]	2.54
KRTYWPDLDYKIREALVLRSVRVR [A10Y]	2.61
KRTYWPDLDLKIREALVLRSVRVR [A10L]	2.05
